These results are taken from paper PMC3438949.

The assay deals with tapasin-ERp57 heterodimer, endogenous (human (endogenous in human cell lines)) (UniProt O15533). Kind of assay: co-IP.
Chain of UniProt O15533 (O15533 21-448, chain 1 of 2): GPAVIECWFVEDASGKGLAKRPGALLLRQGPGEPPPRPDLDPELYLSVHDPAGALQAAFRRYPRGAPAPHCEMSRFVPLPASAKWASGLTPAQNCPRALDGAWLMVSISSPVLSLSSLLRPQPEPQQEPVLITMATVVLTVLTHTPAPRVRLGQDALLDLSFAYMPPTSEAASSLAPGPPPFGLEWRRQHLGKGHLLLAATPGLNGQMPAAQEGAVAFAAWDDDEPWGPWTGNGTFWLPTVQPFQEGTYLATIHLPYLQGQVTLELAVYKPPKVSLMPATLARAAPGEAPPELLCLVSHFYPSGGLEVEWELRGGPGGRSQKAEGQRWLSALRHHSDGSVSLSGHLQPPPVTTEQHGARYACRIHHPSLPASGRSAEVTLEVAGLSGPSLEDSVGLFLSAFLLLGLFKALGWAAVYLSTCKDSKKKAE
Chain of UniProt O15533 (P30101 25-505, chain 2 of 2, further chain): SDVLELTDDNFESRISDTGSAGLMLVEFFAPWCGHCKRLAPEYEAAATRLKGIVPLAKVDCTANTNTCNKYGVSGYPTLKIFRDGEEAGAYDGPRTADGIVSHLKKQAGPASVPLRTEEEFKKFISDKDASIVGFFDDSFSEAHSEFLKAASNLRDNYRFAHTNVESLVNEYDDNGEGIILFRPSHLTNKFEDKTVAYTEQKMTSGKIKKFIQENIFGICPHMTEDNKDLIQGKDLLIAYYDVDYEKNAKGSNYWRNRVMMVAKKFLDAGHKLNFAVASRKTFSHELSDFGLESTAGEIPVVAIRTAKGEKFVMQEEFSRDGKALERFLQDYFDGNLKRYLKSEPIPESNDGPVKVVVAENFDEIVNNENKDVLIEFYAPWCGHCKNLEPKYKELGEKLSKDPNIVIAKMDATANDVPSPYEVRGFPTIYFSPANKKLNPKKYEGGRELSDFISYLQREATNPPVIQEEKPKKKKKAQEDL

Substance “HLA-C4, endogenous in C1R cells (from UniProt P61769 21-119) (complex)” registered a percent of PLC-associated HLA-C4 precipitated by PaSta1 alone (C1R.A2-His cells) of 60%.

For the substance “CFP-tagged HLA-A2 (from UniProt P61769 21-119) (complex)”, the percent of HLA-A2-CFP precipitated by PaSta1 alone (HeLaM.A2-CFP cells) worked out at 20%.

With “endogenous MHC I of HeLaM cells (HLA-A6802, -B1503 and -C1203) (from UniProt P61769 21-119) (complex)”, the percent of endogenous MHC I precipitated by PaSta1 alone (HeLaM.A2-CFP cells) was found to be 60%.
